Patent publication US9512459B2 (priority 2011, dated 2016)

Substrate: OC[C@H]1OC(O)[C@H](O)[C@@H](O)[C@@H]1O
Experiment: cells, lysate or membranes named
Assay type: biochemical, Aspergillus niger
Conditions: crude enzyme, glucose 1-40 mM, pH 6.5, DCIP/PMS

Protein	Km (other: 60 ml culture, 20.0 °C) [µM]	Vmax (other: 60 ml culture, 20.0 °C) [µmol/min/mg]	Km (other: 3 ml culture) [µM]	Vmax (other: 3 ml culture) [U/mg protein]
Aspergillus niger glucose dehydrogenase (FAD-GDH) Ang-n1 variant E195K/Q196E, SEQ ID NO: 2 (Aspergillus niger CBS 513.88; E195K/Q196E) (protein, pET30c, E. coli BL21(DE3), crude extract) MDSPAHYDFVIVGGGTSGLVVANRLSELSDVTVAVIEAGESALNNFNVSNVMGYSTAFGTEVDWAYQTENQTYAGGLQQTIRAGKALGGTSTINGMSYTRAEDVQIDNWEVLGNDGWNWKNLFQYYKKSEGFQVPTKDQIAHGASYNASYHGLNGPLKVGWPNSMTNSSVFPVLKETFEKLGVQYNPDSEGGKMVGFTVHPDTLDREMNVREDAARAYYWPYEARSNLKIISNTRANKVIWANTTQGEAVAVGIEVTNAYGTETIYADKEVILSAGALRSPAILELSGIGNPDVLNKHNIPVKVNITTVGENLQDQTNNALSWEGVDTLTGLATFSVLPSVNQLYGDNVTALASYVKSQLASYAKTVASASNGAVKEANLVEAFERQYDLIFNSQVPYTEVVFAPSGNSFAVEYWPLLPFSRGSVHIQSANASDYPAINPNYFMFDQDAEAQVTVAQYIRKALGTAPLNSLVGEEVSPGLDVLPASASSATWTKWVKENYRTNYHPVGTTSMLPREKGGVVSPELKVYGTKNVRVVDASVLPFQLCGHLTSTLYAVAERASDLIKESY	2800	2.5	–	–
Aspergillus niger glucose dehydrogenase (FAD-GDH) Ang-n2 variant T522S, SEQ ID NO: 2 (Aspergillus niger CBS 513.88; T522S) (protein, pET30c, E. coli BL21(DE3), crude extract) YDFVIVGGGTSGLVVANRLSELSDVTVAVIEAGESALNNFNVSNVMGYSTAFGTEVDWAYQTENQTYAGGLQQTIRAGKALGGTSTINGMSYTRAEDVQIDNWEVLGNDGWNWKNLFQYYKKSEGFQVPTKDQIAHGASYNASYHGLNGPLKVGWPNSMTNSSVFPVLEQTFEKLGVQYNPDSEGGKMVGFTVHPDTLDREMNVREDAARAYYWPYEARSNLKIISNTRANKVIWANTTQGEAVAVGIEVTNAYGTETIYADKEVILSAGALRSPAILELSGIGNPDVLNKHNIPVKVNITTVGENLQDQTNNALSWEGVDTLTGLATFSVLPSVNQLYGDNVTALASYVKSQLASYAKTVASASNGAVKEANLVEAFERQYDLIFNSQVPYTEVVFAPSGNSFAVEYWPLLPFSRGSVHIQSANASDYPAINPNYFMFDQDAEAQVTVAQYIRKALGTAPLNSLVGEEVSPGLDVLPASASSATWTKWVKENYRSNYHPVGTTSMLPREKGGVVSPELKVYGTKNVRVVDASVLPFQLCGHLTSTLYAVAERASDLIKESY	2500	3.4	–	–
Aspergillus niger glucose dehydrogenase (FAD-GDH) Ang-n3, SEQ ID NO: 2 (26 N-terminal residues deleted, Met-Asn-Thr-Thr-Thr- added) (Aspergillus niger CBS … (protein, otherwise wild type; pET30c, E. coli BL21(DE3), dialysed crude enzyme) YDFVIVGGGTSGLVVANRLSELSDVTVAVIEAGESALNNFNVSNVMGYSTAFGTEVDWAYQTENQTYAGGLQQTIRAGKALGGTSTINGMSYTRAEDVQIDNWEVLGNDGWNWKNLFQYYKKSEGFQVPTKDQIAHGASYNASYHGLNGPLKVGWPNSMTNSSVFPVLEQTFEKLGVQYNPDSEGGKMVGFTVHPDTLDREMNVREDAARAYYWPYEARSNLKIISNTRANKVIWANTTQGEAVAVGIEVTNAYGTETIYADKEVILSAGALRSPAILELSGIGNPDVLNKHNIPVKVNITTVGENLQDQTNNALSWEGVDTLTGLATFSVLPSVNQLYGDNVTALASYVKSQLASYAKTVASASNGAVKEANLVEAFERQYDLIFNSQVPYTEVVFAPSGNSFAVEYWPLLPFSRGSVHIQSANASDYPAINPNYFMFDQDAEAQVTVAQYIRKALGTAPLNSLVGEEVSPGLDVLPASASSATWTKWVKENYRTNYHPVGTTSMLPREKGGVVSPELKVYGTKNVRVVDASVLPFQLCGHLTSTLYAVAERASDLIKESY	3700	0.7	–	–
Aspergillus niger glucose dehydrogenase (FAD-GDH) Ang-n2 variant E195K/Q196E/G73A, SEQ ID NO: 2 (Aspergillus niger CBS 513.88; E195K/G73A/Q196E) (protein, E. coli BL21(DE3), crude extract, small-scale culture) YDFVIVGGGTSGLVVANRLSELSDVTVAVIEAGESALNNFNVSNVMAYSTAFGTEVDWAYQTENQTYAGGLQQTIRAGKALGGTSTINGMSYTRAEDVQIDNWEVLGNDGWNWKNLFQYYKKSEGFQVPTKDQIAHGASYNASYHGLNGPLKVGWPNSMTNSSVFPVLKETFEKLGVQYNPDSEGGKMVGFTVHPDTLDREMNVREDAARAYYWPYEARSNLKIISNTRANKVIWANTTQGEAVAVGIEVTNAYGTETIYADKEVILSAGALRSPAILELSGIGNPDVLNKHNIPVKVNITTVGENLQDQTNNALSWEGVDTLTGLATFSVLPSVNQLYGDNVTALASYVKSQLASYAKTVASASNGAVKEANLVEAFERQYDLIFNSQVPYTEVVFAPSGNSFAVEYWPLLPFSRGSVHIQSANASDYPAINPNYFMFDQDAEAQVTVAQYIRKALGTAPLNSLVGEEVSPGLDVLPASASSATWTKWVKENYRTNYHPVGTTSMLPREKGGVVSPELKVYGTKNVRVVDASVLPFQLCGHLTSTLYAVAERASDLIKESY	–	–	5500	5.0
Aspergillus niger glucose dehydrogenase (FAD-GDH) Ang-n3 variant E195K/Q196E, SEQ ID NO: 2 (Aspergillus niger CBS 513.88; E195K/Q196E) (protein, pET30c, E. coli BL21(DE3), dialysed crude enzyme) YDFVIVGGGTSGLVVANRLSELSDVTVAVIEAGESALNNFNVSNVMGYSTAFGTEVDWAYQTENQTYAGGLQQTIRAGKALGGTSTINGMSYTRAEDVQIDNWEVLGNDGWNWKNLFQYYKKSEGFQVPTKDQIAHGASYNASYHGLNGPLKVGWPNSMTNSSVFPVLKETFEKLGVQYNPDSEGGKMVGFTVHPDTLDREMNVREDAARAYYWPYEARSNLKIISNTRANKVIWANTTQGEAVAVGIEVTNAYGTETIYADKEVILSAGALRSPAILELSGIGNPDVLNKHNIPVKVNITTVGENLQDQTNNALSWEGVDTLTGLATFSVLPSVNQLYGDNVTALASYVKSQLASYAKTVASASNGAVKEANLVEAFERQYDLIFNSQVPYTEVVFAPSGNSFAVEYWPLLPFSRGSVHIQSANASDYPAINPNYFMFDQDAEAQVTVAQYIRKALGTAPLNSLVGEEVSPGLDVLPASASSATWTKWVKENYRTNYHPVGTTSMLPREKGGVVSPELKVYGTKNVRVVDASVLPFQLCGHLTSTLYAVAERASDLIKESY	2200	4.5	–	–
